{"source": "paper PMC1424673", "data": [{"biological_target": "T1, Irr (Bradyrhizobium japonicum, UniProt O85719 1-163)", "T1 sequence": "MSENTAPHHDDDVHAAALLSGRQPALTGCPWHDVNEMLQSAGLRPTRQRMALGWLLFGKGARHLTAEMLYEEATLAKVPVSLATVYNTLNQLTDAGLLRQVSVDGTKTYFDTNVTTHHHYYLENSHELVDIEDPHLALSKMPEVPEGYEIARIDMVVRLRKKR", "assay": "EMSA", "values": [{"binder": "bll5796 ICE-like probe (dsDNA) DNA 1: CAGGAATTCGATAGCTTAGAACGCTTCTATGCCGACCTC DNA 2: GTCGAGGTCGGCATAGAAGCGTTCTAAGCTATCGAATTC", "binding result": "binds"}, {"binder": "blr3904 ICE-like probe (dsDNA) DNA 1: CAGGAATTCGATACTTTAGAACCGTTTGAAACTGACCTC DNA 2: GTCGAGGTCAGTTTCAAACGGTTCTAAAGTATCGAATTC", "binding result": "binds"}, {"binder": "non-specific pSK control (dsDNA) DNA 1: CAGGAATTCGATATCAAGCTTATCGATACCGTCGACCTC DNA 2: GTCGAGGTCGACGGTATCGATAAGCTTGATATCGAATTC", "binding result": "no binding"}]}]}
